Tests used:
[1] = system: PANC-1 cells; assay: Flow cytometry-based binding assay; type: cell-based, human; details: Cy3-labelled aptamer 500 nM, 20 minutes in ice, PANC-1, compared with initial RNA library pool
Description: Flow cytometry-based binding assays. Aptamer binding was assessed by flow cytometry. For the assay, the PANC-1 cells were detached using Accutase, washed with PBS and suspended in binding buffer. Next, chemically synthesized aptamers labeled with Cy3 at 500 nM were added to target cells for 20 minutes in ice. Cells were washed with binding buffer and immediately analyzed by NovoCyte (ACEA Biosciences). For the exclusion of dead cells, 4′6′-diamidino-2-phenylindole (DAPI) (1 μg/ml) was used. The data were analyzed with NovoExpress software.

[2] = system: PANC-1 cells; assay: Cellular uptake inhibition assay with endocytosis inhibitors; type: cell-based, human; details: Cy3-aptamer 200 nM, 1 hour
Description: Cellular uptake inhibition assay. 5×10^3 PANC-1 cells/well were seeded in 96-well plates one day before assay. PANC-1 cells were left either pretreated or untreated with chlorpromazine (CPZ, clathrin endocytosis inhibitor, 10 μg/mL), chloroquine (CQ, clathrin endocytosis inhibitor, 20 μg/mL), dynasore (dynamine inhibitor, 80 μM), genistein (GEZ, caveolae/lipid mediated endocytosis inhibitor, 50 μg/mL), or, cytochalasin D (Cyto D, 5 μM) at 37° C. for 30 min. Subsequently, cells were washed with DPBS and incubated with Cy3-labeled aptamers at 200 nM at 37° C. f for 1 hour. Following incubation, cells were washed with HBSS to remove surface-bound aptamers. Cellular uptake was quantified by fluorescence using a plate reader (Molecular device, SpectraMax iD3). The inhibition of uptake was normalized with inhibitor non-treated groups (mock)

[3] = target: T1, TfR1 (Homo sapiens, UniProt P02786); assay: Cross-reactivity by live cell confocal imaging, U87MG cells (express TfR1, not TfR2); type: cell-based; details: Cy3-labelled aptamer, U87MG cells (TfR1 only)
T1 construct: The U87MG cells only express TfR1, not TfR2; endogenous in cells; host or cells: U87MG (U-87 MG, ATCC HTB-14)
T1 sequence (P02786 whole entry): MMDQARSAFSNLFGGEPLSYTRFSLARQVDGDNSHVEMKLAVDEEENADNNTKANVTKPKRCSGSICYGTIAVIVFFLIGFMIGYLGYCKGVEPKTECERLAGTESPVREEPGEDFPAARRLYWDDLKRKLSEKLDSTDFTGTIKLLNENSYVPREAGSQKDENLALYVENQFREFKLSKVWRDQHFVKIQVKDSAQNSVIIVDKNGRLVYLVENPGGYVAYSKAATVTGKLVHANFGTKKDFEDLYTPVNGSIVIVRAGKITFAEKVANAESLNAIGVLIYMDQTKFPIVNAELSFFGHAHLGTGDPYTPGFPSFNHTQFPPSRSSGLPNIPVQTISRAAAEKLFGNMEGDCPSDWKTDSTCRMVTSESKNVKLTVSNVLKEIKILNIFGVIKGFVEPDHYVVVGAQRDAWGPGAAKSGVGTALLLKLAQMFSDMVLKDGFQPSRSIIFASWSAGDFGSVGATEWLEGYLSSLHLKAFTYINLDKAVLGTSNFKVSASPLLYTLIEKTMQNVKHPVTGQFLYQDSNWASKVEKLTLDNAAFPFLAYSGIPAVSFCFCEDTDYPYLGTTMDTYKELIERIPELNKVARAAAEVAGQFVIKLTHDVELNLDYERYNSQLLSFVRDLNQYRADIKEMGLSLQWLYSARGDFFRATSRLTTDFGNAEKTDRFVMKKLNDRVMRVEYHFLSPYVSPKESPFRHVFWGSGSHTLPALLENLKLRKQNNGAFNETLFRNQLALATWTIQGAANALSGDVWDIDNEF
Description: (§1) Cell line. HepG2 (Hepatocarcinoma, HB-8065) and PANC-1 (Pancreatic epithelioid carcinoma, CRL-1469), U-87 MG (Glioblastoma, HTB-14) were purchased from the American Type Culture Collection (ATCC, Manassas, Va.). The cells were cultured according to the suppliers' instructions. TB10 human glioma cell line was obtained from Vittorio de Franciscis lab in Italy. The cells were cultured according to the suppliers' instructions.
(§2) To determine the potential cross-reactivity of the parent TR14, S2 (43-nt) and ST1-3 (22-nt) truncates, we tested chemically synthesized parent TR14, TR14-[…] or TR14-ST1-3 aptamer labelled with Cy3 on live cells imaging by confocal microscopy. To test this, we choose two glioblastoma cell lines (U87MG and TB10) that are selectively expressed of TfR1 or TfR2. The U87MG cells only express TfR1, not TfR2. In contrast, TB10 expresses TfR2, not TfR1.

[4] = system: PANC-1 cells; assay: Live-cell confocal imaging for aptamer internalization, PANC-1; type: cell-based, human; details: Cy3-labeled aptamer 200 nM, 2-h incubation, PANC-1, confocal microscopy
Description: (§3) Live-cell confocal imaging for aptamer internalization. 1×10^5 HepG2 or PANC-1 cells were seeded in 35-mm glass-bottom dishes (MatTek, Ashland, Mass.) and grown in appropriate media for 24 h. Aptamer RNAs were labeled with Cy3 fluorescent dye using the Cy3 Silencer siRNA labeling kit (Thermo Fisher Scientific, Waltham, Mass.). Cy3-labeled aptamers in binding buffer (30 mM Tris-HCl, pH 7.5; 150 mM NaCl; 5 mM MgCl2; 100 μg/mL yeast tRNA) were added to the cells at 200 nM and incubated at 37° C. for 2 h. Before imaging, cells were washed with DPBS twice. Live-cell confocal imaging was performed with a Zeiss LSM 510 Meta inverted two-photon confocal microscope system using a C-Apo 40×/1.2NA water immersion objective, and AIM 4.2 software (Carl Zeiss, Jena, Germany).

[5] = target: T2, hTfR1 (extracellular domain of hTfR, His6-tagged) (Homo sapiens, UniProt P02786); assay: Surface plasmon resonance-based biosensor assay (Biacore T100), aptamer-hTfR binding affinity and kinetics
T2 construct: (NP_003225.2) (Cys 89-Phe 760); His6 (N); purchased Sino Biological Inc 11020-H07H; host or cells: HEK293
T2 sequence (P02786 89-760): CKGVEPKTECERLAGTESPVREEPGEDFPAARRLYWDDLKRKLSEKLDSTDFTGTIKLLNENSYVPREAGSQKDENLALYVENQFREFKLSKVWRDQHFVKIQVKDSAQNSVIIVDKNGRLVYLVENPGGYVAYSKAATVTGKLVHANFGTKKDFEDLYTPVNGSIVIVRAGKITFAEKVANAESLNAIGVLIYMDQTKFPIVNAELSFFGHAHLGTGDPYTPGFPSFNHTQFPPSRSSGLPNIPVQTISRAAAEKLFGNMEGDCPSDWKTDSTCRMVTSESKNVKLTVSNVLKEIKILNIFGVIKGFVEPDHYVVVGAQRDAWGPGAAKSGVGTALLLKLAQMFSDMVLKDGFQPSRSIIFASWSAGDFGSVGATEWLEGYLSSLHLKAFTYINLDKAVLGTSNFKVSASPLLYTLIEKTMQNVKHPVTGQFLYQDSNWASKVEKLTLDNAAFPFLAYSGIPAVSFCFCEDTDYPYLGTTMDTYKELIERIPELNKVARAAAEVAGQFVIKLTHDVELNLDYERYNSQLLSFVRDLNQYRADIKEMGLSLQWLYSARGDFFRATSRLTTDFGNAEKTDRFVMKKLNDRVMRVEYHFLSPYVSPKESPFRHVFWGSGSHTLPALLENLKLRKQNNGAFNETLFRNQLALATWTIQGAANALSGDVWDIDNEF
Excerpt: Recombinant target protein. hTfR was purchased from Sino Biological Inc (11020-H07H, Beijing, P.R. China). The extracellular domain of hTfR (NP_003225.2) (Cys 89-Phe 760) was expressed with a His6-tag at the N-terminus in human cells (HEK293).
Surface plasmon resonance-based biosensor assay. The Biacore T100 (GE Healthcare, Uppsala, Sweden) was used to monitor label-free interactions of truncated TR14-hTfR1 in real time. The biotinylated aptamer was coupled to a streptavidin-coated Biacore chip (SensorChip SA, BR-1003-98, General Electric Company) by an injection in binding buffer at a concentration of 25 μg/mL (30 mM Tris-HCl, pH 7.5; 150 mM NaCl; 5 mM MgCl2) at 10 uL/min. The RNA was refolded by heating to 65° C., followed by cooling to 37° C., before immobilization. To measure binding kinetics, five concentrations of purified hTfR1 protein were injected at a flow rate of 10 uL/min. After binding, the surface was regenerated by injecting 50 mM NaOH at a flow rate of 15 μL/min for 20 s. Data from the control surface were subtracted. BIAevaluation software (GE Healthcare) was used for analysis. The binding data was fit to a 1:1 binding with a mass transfer model to calculate kinetics parameters as previously described (Hernandez et al, 2009; Soontornworajit et al, 2011)

[6] = target: T3, TfR2 (Homo sapiens, UniProt Q9UP52); assay: Cross-reactivity by live cell confocal imaging, TB10 cells (express TfR2, not TfR1); type: cell-based; details: Cy3-labelled aptamer, TB10 cells (TfR2 only)
T3 construct: In contrast, TB10 expresses TfR2, not TfR1; endogenous in cells; host or cells: TB10 human glioma cells
T3 sequence (Q9UP52 1-801): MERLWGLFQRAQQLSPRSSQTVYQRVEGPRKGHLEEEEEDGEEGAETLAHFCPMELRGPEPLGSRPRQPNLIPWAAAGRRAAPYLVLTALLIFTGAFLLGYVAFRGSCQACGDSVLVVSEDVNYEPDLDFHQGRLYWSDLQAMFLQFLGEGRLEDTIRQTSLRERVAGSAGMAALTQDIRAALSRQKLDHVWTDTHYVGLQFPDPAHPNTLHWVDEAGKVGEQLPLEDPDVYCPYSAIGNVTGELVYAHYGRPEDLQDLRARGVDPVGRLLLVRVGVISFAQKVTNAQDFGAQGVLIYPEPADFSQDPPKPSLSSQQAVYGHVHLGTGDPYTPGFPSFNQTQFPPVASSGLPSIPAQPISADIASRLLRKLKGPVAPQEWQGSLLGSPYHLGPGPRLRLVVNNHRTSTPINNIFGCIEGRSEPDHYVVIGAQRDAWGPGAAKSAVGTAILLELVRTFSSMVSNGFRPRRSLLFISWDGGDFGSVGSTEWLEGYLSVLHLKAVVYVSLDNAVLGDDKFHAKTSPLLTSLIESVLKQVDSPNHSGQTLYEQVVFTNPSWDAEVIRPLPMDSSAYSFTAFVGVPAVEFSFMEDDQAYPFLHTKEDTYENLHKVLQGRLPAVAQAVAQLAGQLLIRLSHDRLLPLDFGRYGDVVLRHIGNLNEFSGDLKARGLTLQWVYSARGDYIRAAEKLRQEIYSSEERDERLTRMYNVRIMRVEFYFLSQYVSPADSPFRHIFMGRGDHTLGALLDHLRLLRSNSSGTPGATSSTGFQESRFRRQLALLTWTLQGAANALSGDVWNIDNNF
Description: as §1, §2

[7] = system: PANC-1 cells; assay: Co-localization assay with early endosome, late endosome and lysosome markers; type: cell-based, human; details: Cy3 labelled aptamer 200 nM, 2 h, live cells expressing GFP-Rab5a, Rab7a or Lamp1
Description: Co-localization assay. 1×10^5 PANC-1 cells were seeded in 35 mm glass-bottom dishes (MatTek, Ashland, Mass.) and grown in appropriate media for 24 h. CellLight™ Early endosome-GFP BacMam 2.0 (Thermo Fisher, C10586, CellLight™ Late endosome-GFP BacMam 2.0 (Thermo Fisher, C10588), or CellLight™ Lysosome-GFP BacMam 2.0 lysosome-GFP (Thermo Fisher, C10596) of 20 μL were added and incubated at 37° C. for 16 h. After confirmation of GFP expression, chemically synthesized TR14 labelled with Cy3 at 200 nM was incubated at 37° C. for 2 h. The co-localization was assessed on live cells by confocal microscopy.

[8] = system: PANC-1 cells; assay: Competition assays with human transferrin or human transferrin receptor antibodies; type: cell-based; details: aptamer 200 nM
Description: Competition assays. For competition assays with human transferrin or human transferrin receptor antibodies, 5×10^3 PANC-1 cells/well were seeded in 96-well plates and grown in one day. Cells were pre-incubated with TR14 at 200 nM for 20 min on ice with PBS. After washing with PBS, human transferrin conjugated with Alexa-488 at 25 μg/mL or human transferrin receptor antibody (2 μL/1×10^4 cells) conjugated with FITC were added to cells and the cells were incubated at 37° C. for 40 min. Afterward, the cells were washed with HBSS twice to remove cell surface binders. The intensity of fluorescence was quantified using plate reader (Molecular device, SpectraMax iD5). The intensity was normalized with aptamer non-treated control cells (mock).

[9] = system: HepG2 cells; assay: Live-cell confocal imaging for aptamer internalization, HepG2; type: cell-based, human; details: Cy3-labeled aptamer 200 nM, 2-h incubation, HepG2, confocal microscopy
Description: as §3

[10] = Biacore T100, biotinylated aptamer on streptavidin chip, hTfR1 protein injected, 1:1 binding with mass transfer
[11] = label-free biosensor assay in real-time

B1: TR14: 87-nucleotide anti-hTfR 2′F-RNA aptamer identified after nine rounds of protein SELEX; SEQ ID NO:1 (nucleic acid)
chain: GGGAGACAAGAAUAAACGCUCAAUGCGUUCACGUUUAUUCACAUUUUUGAAUUGAGCAUGAGCUUCGACAGGAGGCUCACAACAGGC
modifications: 2'-fluoro RNA aptamer from SELEX, modified positions not given here
cell surface binding by flow cytometry [1]: enriched cell surface binding
uptake of aptamer after pre-treatment with clathrin mediated endocytosis (CME) inhibitors ([2]; chlorpromazine 10 μg/mL, chloroquine 20 μg/mL or dynasore 80 μM): inhibited significantly
uptake of aptamer after pre-treatment with clathrin independent endocytosis (CIE) inhibitors ([2]; genistein 50 μg/mL or cytochalasin D 5 μM): not interfered
binding to TfR1 [3]: bound to both TfR1 and TfR2
cell internalization [4]: successfully internalized
ka (1/Ms), measured association rate [5, 10]: 6780 M⁻¹ s⁻¹
kd (1/s), measured disassociation rate [5, 10]: 1.68e-06 s⁻¹
association (ka) rate constant [5, 11]: 6780 M⁻¹ s⁻¹
dissociation (kd) rate constant [5, 11]: 1.68e-06 s⁻¹
Kd ([5]; label-free biosensor assay in real-time, read-out: equilibrium dissociation constant (K^D) for hTfR): 31.7 pM
binding to TfR2 [6]: bound to both TfR1 and TfR2
subcellular co-localization with early endosome, late endosome and lysosome [7]: multiple co-localizations
competition with transferrin receptor antibodies ([8]; FITC-conjugated human transferrin receptor antibody): did not compete
internalized transferrin after pre-incubation with aptamer ([8]; human transferrin-Alexa-488 25 μg/mL): significantly inhibited
cell internalization [9]: successfully internalized

Source: patent publication US20220396794A1, “APTAMERS AGAINST TRANSFERRIN RECEPTOR (TfR)” (APTERNA LIMITED, priority 2019, published 2022)
